{"source": "patent US7572612B2", "about": "“Method of production of para-hydroxycinnamic acid using a thermostable TAL enzyme” (E.I. du Pont de Nemours and Company, priority 2006, dated 2009)", "key": {"[1]": {"test": "Conversion of tyrosine to pHCA in 3 L Applikon BioReactors", "type": "cell-based, E. coli", "procedure": "The following experiment was performed in an Applikon BioReactor (9.0 liter working volume) where pH and temperature of the reaction were controlled. Both strains DPD5154 and DPD5124 were tested. The E. coli DPD5154 (PcTAL) cells were produced by the protocol described in Example 6, with a final cell density of […]. In the case of E. coli DPD5124 (RgTAL) the inoculum was grown in a 2.0 L shake flask containing 500 ml of the following medium (in grams per liter) KH2PO4 (2.0 g/L), K2HPO4 (13.0 g/L), (NH4)2HPO4 […]), MgSO4.7H2O (1.0 g/L), yeast extract (2.0 g/L), Ferric Ammonium Citrate (0.1 g/L). The pH was adjusted to 7.0 and the medium steam sterilized. Glucose (30.0 g/L) and ampicillin (50 mg/L) were added post-sterilization. The culture was grown in 2 L flasks with 500 mL medium, at 35° C. to about OD550 of 2.0 and then the entire contents was used to inoculate the fermentor. The fermentor was controlled at 36° C., pH 6.8, with the dissolved oxygen (DO) tension of 25% controlled with cascade of agitation and air flow with agitation from 400 to 1000 rpm and airflow from 2 to 16 SLPM. The overhead pressure was 0.5. When the glucose level reached below 4.0 g/L a glucose feed program with 60% glucose (w/w) was initiated, consisting of: first 4 h at 0.36 g/min, next 12 h at 0.73 g/min and to the end of run at 0.56 g/min. When the culture reached an OD550 of 35, arabinose was added to final concentration of 0.5 g/L The fermentation was terminated 20 h after arabinose addition. The final cell density in the fermentation broth was an OD550 of 90 and the final volume was about 9 liter. The g dcw/L was determined assuming that 1.0 OD550 contained 0.33 g dcw/L:=30 g dcw/L.\nThe cells were harvested by centrifugation and stored as a frozen paste at −80° C. until use. Before use, the cell paste was thawed and suspended in the saline solution to about 10% w/v. The cell dry weight concentration was calculated from [cells wet weight]×[% solids] where [% solids] was determined after drying the cells in a vacuum oven, at 90° C. for >16 h.\nThe tyrosine used was AR grade (J. T. Baker). It was suspended in distilled, deionized water at 33% w/w concentration, homogenized in a blender and added to about 50 g/L final concentration. Reactions were conducted in 3 L Applikon BioReactors (Applikon, De Brauwweg 13, The Netherlands), with a 1-2 L working volume. The set points for the control systems were pH 9.9 with automatic addition of NaOH 25% w/v with agitation at 400 rpm. The bioconversion was typically done by adding the tyrosine suspension to the appropriate concentration, adjusting the pH and temperature to the determined set point, adding the cell suspension to the appropriate concentration, and DI water to the final volume."}, "[2]": {"test": "TAL activity temperature profile of purified enzyme", "type": "biochemical", "procedure": "Six grams of cell pellet, from the 10 liter fermentation of DPD5154 was resuspended in 6.0 mL Buffer A (10 mM Tris-HCl, pH 8.0, 200 μM EDTA) containing one EDTA-free protease inhibitor tablet (Roche Biosciences, Palo Alto, Calif.), 1.0 μg/ml Leupeptin, 1.0 μg/ml Pepstatin, 40 μg/ml Bestatin 5.0 mM CA. Cells were lysed by two passes through a French Pressure Cell at 20,000 PSI, and clarified by centrifugation at 12,000×g for 20 minutes. To the clarified supernatant, 1.0% streptomycin sulfate was added, and the suspension was gently mixed for 15 minutes at 4° C. and then clarified by centrifugation at 12,000×g for 20 minutes. The supernatant was heated at 60° C. for 20 min, and centrifuged again at 12,000×g for 20 minutes. This clarified crude extract sample was loaded onto a Q Sepharose FF 16/10 anion exchange column equilibrated with buffer A in an Akta FPLC system (Amersham, GE Healthcare, Piscataway, N.J.), and eluted with 10 column volumes of gradient from Buffer A, to Buffer A containing 1.0 M NaCl. Five ml fractions were collected from the column and assayed for TAL activity as described above. The fractions containing TAL activity were pooled. To the pooled anion exchange fractions containing TAL activity, saturated (NH4)2SO4 (4.0M) was added to final 30% saturation. After centrifugation at 12,000 g for 20 minutes, additional saturated (NH4)2SO4 (4.0M) was added to the supernatant fraction to a final 50% saturation. The mixture was centrifuged again at 12,000 g for 20 minutes, and the supernatant was removed. […] The purity of the PcTAL protein in the fractions was analyzed by SDS-PAGE. The fractions containing TAL activity with high purity as determined by SDS-PAGE were pooled. […]\nThe in vitro enzymatic assay using the purified PcTAL was performed as a comparison to the whole cell assay. The temperature profile of the purified PcTAL enzyme (from Example 6) was measured at temperatures varying from 25° C. to 60° C. in 100 mM CAPS buffer, pH 10, containing 1.0 mM tyrosine. […]"}, "[3]": {"conditions": "30 C., cell conc 6 g/L, reaction time 19 h"}, "[4]": {"conditions": "35 C., cell conc 6 g/L, reaction time 15 h"}, "[5]": {"conditions": "40 C., cell conc 6 g/L, reaction time 7 h"}, "[6]": {"conditions": "43 C., cell conc 6 g/L, reaction time 6 h"}, "[7]": {"conditions": "45 C., cell conc 2 g/L, reaction time 19 h"}, "[8]": {"conditions": "45 C., cell conc 4 g/L, reaction time 10 h"}, "[9]": {"conditions": "45 C., cell conc 6 g/L, reaction time 6 h"}, "[10]": {"conditions": "48 C., cell conc 6 g/L, reaction time 6 h"}}, "data": [{"molecule": "PcTAL: thermostable tyrosine ammonia lyase (PAL/TAL) enzyme from Phanerochaete chrysosporium, SEQ ID NO:1 (protein, listed as Phanerochaete chrysosporium) MPSRIDYYTSSGNGYAQSRKSSAIYPASASTGHAAPSTERKPELLDKFVEAYDELQSYREGKPVIVDGHNLSIPAVAATARFGAAVVLDENPETHERVLQSRRVIVDKVSTQRSVYGVSTGFGGSADTRTSDPLQLGHALLQHQHVGVLPTQTESPLPALPLGDPLATTSMPEAWVRGAILIRMNSLIRGHSGVRWELIEKMGELLRENITPLVPLRGSISASGDLSPLSYIAGTLIGSPAIRVFDGPASYGARRILPSNIALANHGVAPIPLSSKEHLGILNGTAFSASVGALALNEAVHLSLLAQVCTAMGTEAMIGAVGSFDAFIHDTARPHPGQVEVARNVRTLLEDSQMAVKAEDEVHIAEDEGELRQDRYPLRTAAQFLGPQIEDILSAHETVTLECNSTTDNPLIDGETGTVHHGGNFQAMAVTNAMEKTRLAIHHIGKLLFAQATELINPMMNRGLPPNLAATDPSHNYFAKGVDIHLAAYVGELGFLASPVSSHIQSAEMHNQAVNSLALVSARYTISALDVLSLLTAAYLYVLCQALDLRAMHNDLQSSLSAIVRELLPKHFPSAAKRADALLPILERTIFRALNSSSSADCKARMVSVAASTTTPLVDFLSADAALASELANITAFRTELATRAADALTTLRTQYLEGARGAAPASKYLGKTRPVYEFVRVTLNVPMHGRENLHNFEMGPGVEDGIIGNNISTIYEAIRDGKMQNVVMQLVKSIKA", "values": [{"measurement": "Prod g/L-h", "setting": "[1]; [3]", "value": 2.20, "unit": "g/L-h"}, {"measurement": "Prod g/g-h", "setting": "[1]; [3]", "value": 0.37, "unit": "g/g-h"}, {"measurement": "Prod g/L-h", "setting": "[1]; [4]", "value": 2.79, "unit": "g/L-h"}, {"measurement": "Prod g/g-h", "setting": "[1]; [4]", "value": 0.46, "unit": "g/g-h"}, {"measurement": "Prod g/L-h", "setting": "[1]; [5]", "value": 5.94, "unit": "g/L-h"}, {"measurement": "Prod g/g-h", "setting": "[1]; [5]", "value": 0.99, "unit": "g/g-h"}, {"measurement": "Prod g/L-h", "setting": "[1]; [6]", "value": 6.90, "unit": "g/L-h"}, {"measurement": "Prod g/g-h", "setting": "[1]; [6]", "value": 1.15, "unit": "g/g-h"}, {"measurement": "Prod g/L-h", "setting": "[1]; [7]", "value": 2.22, "unit": "g/L-h"}, {"measurement": "Prod g/g-h", "setting": "[1]; [7]", "value": 1.11, "unit": "g/g-h"}, {"measurement": "Prod g/L-h", "setting": "[1]; [8]", "value": 4.18, "unit": "g/L-h"}, {"measurement": "Prod g/g-h", "setting": "[1]; [8]", "value": 1.05, "unit": "g/g-h"}, {"measurement": "Prod g/L-h", "setting": "[1]; [9]", "value": 6.83, "unit": "g/L-h"}, {"measurement": "Prod g/g-h", "setting": "[1]; [9]", "value": 1.14, "unit": "g/g-h"}, {"measurement": "Prod g/L-h", "setting": "[1]; [10]", "value": 7.00, "unit": "g/L-h"}, {"measurement": "Prod g/g-h", "setting": "[1]; [10]", "value": 1.17, "unit": "g/g-h"}, {"measurement": "TAL activity at 55° C.", "setting": "[2]; 55° C.", "value": 1479, "unit": "U/g"}, {"measurement": "TAL activity at 60° C.", "setting": "[2]; 60° C.", "value": 1431, "unit": "U/g"}, {"measurement": "maximum activity of purified enzyme relative to that at 25° C.", "setting": "[2]; about 55° C. vs 25° C.", "value": "about 3 fold"}]}]}
